Results published in paper PMC6415861, “The renal transport protein OATP4C1 mediates uptake of the uremic toxin asymmetric dimethylarginine (ADMA) and efflux of cardioprotective L-homoarginine” (PLoS ONE, 2019).

Assays:
OATP4C1 = target: T1, OATP4C1 (Homo sapiens, UniProt Q6ZQN7); assay: inhibition of OATP4C1-mediated L-homoarginine ([…]) net uptake in HEK cells; format: cell-based
T1 construct: gene SLCO4C1
T1 sequence (Q6ZQN7 1-724): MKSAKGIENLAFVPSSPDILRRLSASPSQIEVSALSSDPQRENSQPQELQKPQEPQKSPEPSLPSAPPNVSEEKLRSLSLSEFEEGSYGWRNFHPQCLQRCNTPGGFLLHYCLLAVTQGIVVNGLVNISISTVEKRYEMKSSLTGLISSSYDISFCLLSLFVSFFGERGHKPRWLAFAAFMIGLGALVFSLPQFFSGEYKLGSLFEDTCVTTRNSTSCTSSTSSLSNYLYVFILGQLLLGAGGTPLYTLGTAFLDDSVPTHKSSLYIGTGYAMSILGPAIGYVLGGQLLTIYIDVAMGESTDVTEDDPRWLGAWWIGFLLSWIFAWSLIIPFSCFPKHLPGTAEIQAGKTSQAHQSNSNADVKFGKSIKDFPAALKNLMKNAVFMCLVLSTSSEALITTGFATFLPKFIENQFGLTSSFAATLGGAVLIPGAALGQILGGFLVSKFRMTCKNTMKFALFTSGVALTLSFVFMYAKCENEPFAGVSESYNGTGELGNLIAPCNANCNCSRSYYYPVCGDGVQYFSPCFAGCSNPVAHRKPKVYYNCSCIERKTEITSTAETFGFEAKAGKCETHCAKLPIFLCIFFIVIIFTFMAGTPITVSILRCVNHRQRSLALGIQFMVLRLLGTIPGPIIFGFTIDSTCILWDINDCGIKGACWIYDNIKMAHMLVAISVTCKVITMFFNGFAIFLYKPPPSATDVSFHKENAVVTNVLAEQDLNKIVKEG

[1] = substrate: N=C(N)NCCCC[C@H](N)C(=O)O; assay: radiolabeled uptake and efflux in HEK-OATP4C1 vs vector control cells (Km); format: cell-based, Homo sapiens
[2] = substrate: N=C(N)NCCC[C@H](N)C(=O)O; assay: radiolabeled uptake in HEK-OATP4C1 vs vector control cells (Km); format: cell-based, Homo sapiens
[3] = substrate: CN(C)C(=N)NCCC[C@H](N)C(=O)O; assay: radiolabeled uptake and efflux in HEK-OATP4C1 vs vector control cells (Km); also inhibits L-homoarginine uptake; format: cell-based, Homo sapiens

Molecule | IC50 (OATP4C1) [µM] | Km [1] [µM] | Km [2] [µM] | Km [3] [µM]
CN=C(NC)NCCC[C@H](N)C(=O)O [SDMA] | 54 ± 1.3 | – | – | –
OATP4C1 (Homo sapiens) (protein) MKSAKGIENLAFVPSSPDILRRLSASPSQIEVSALSSDPQRENSQPQELQKPQEPQKSPEPSLPSAPPNVSEEKLRSLSLSEFEEGSYGWRNFHPQCLQRCNTPGGFLLHYCLLAVTQGIVVNGLVNISISTVEKRYEMKSSLTGLISSSYDISFCLLSLFVSFFGERGHKPRWLAFAAFMIGLGALVFSLPQFFSGEYKLGSLFEDTCVTTRNSTSCTSSTSSLSNYLYVFILGQLLLGAGGTPLYTLGTAFLDDSVPTHKSSLYIGTGYAMSILGPAIGYVLGGQLLTIYIDVAMGESTDVTEDDPRWLGAWWIGFLLSWIFAWSLIIPFSCFPKHLPGTAEIQAGKTSQAHQSNSNADVKFGKSIKDFPAALKNLMKNAVFMCLVLSTSSEALITTGFATFLPKFIENQFGLTSSFAATLGGAVLIPGAALGQILGGFLVSKFRMTCKNTMKFALFTSGVALTLSFVFMYAKCENEPFAGVSESYNGTGELGNLIAPCNANCNCSRSYYYPVCGDGVQYFSPCFAGCSNPVAHRKPKVYYNCSCIERKTEITSTAETFGFEAKAGKCETHCAKLPIFLCIFFIVIIFTFMAGTPITVSILRCVNHRQRSLALGIQFMVLRLLGTIPGPIIFGFTIDSTCILWDINDCGIKGACWIYDNIKMAHMLVAISVTCKVITMFFNGFAIFLYKPPPSATDVSFHKENAVVTNVLAEQDLNKIVKEG | – | 49.9 ± 9.6 | 48.1 ± 5.7 | 232.1 ± 78.9
